# Experimental data: PMC11724271
# “And” between values parts separate entries of the source, which are not always exact repeats. Equal values may be shown once.
# Target: CdiA-CT^EC536_H178A (catalytically inactive C-terminal toxin domain of CdiA from uropathogenic E. coli 536) (uropathogenic Escherichia coli 536)
# Assay: cryo-EM structure
binder,measurement,value
"O-acetylserine sulfhydrylase A (CysK) (enzyme, PLP (N'-pyridoxyl-lysine-5'-monophosphate); position not given) MSKIFEDNSLTIGHTPLVRLNRIGNGRILAKVESRNPSFSVKCRIGANMIWDAEKRGVLKPGVELVEPTSGNTGIALAYVAAARGYKLTLTMPETMSIERRKLLKALGANLVLTEGAKGMKGAIQKAEEIVASNPEKYLLLQQFSNPANPEIHEKTTGPEIWEDTDGQVDVFIAGVGTGGTLTGVSRYIKGTKGKTDLISVAVEPTDSPVIAQALAGEEIKPGPHKIQGIGAGFIPANLDLKLVDKVIGITNEEAISTARRLMEEEGILAGISSGAAVAAALKLQEDESFTNKNIVVILPSSGERYLSTALFADLFTEKELQQ",stoichiometry N (CysK per CdiA-CT),2 and 1
